Article PMC5218472 (PLoS Biology, 2017)

System: Ba/F3-gp130 cells
Experiment: Proliferation of Ba/F3-gp130 cells with 10 ng/ml IL-6 plus recombinant sIL-6R or ds-sIL-6R (IL-6 trans-signaling), Cell Titer Blue
Assay type: cell-based
Conditions: 0-100 ng/ml with 10 ng/ml IL-6, 48 h
Description: Fig 1 The majority of sIL-6R in human serum is not generated by alternative mRNA splicing. (A) Multiple sequence alignment of amino acids Met-310 to Ala-370 of the full-length human IL-6R with the sIL-6R (Met-310 to Gln-357) and amino acids Met-310 to Leu-365 of the differentially spliced sIL-6R (ds-sIL-6R). The ten unique C-terminal amino-acid residues of the […], which represent the epitope against which the antibody ds6R was raised, are colored in green. (B, C) Proliferation assay of Ba/F3-gp130 cells in response to 10 ng/ml IL-6 and increasing amounts (0–100 ng/ml) of either (B) recombinant sIL-6R or (C) recombinant ds-sIL-6R. Cell viability was assessed after 48 h. […]
Proliferation of the different Ba/F3-gp130-IL-6R cell lines in response to IL-6 and Hyper-IL-6 and of Ba/F3-gp130 cells in response to IL-6 and the two different recombinant sIL-6R variants was determined using the Cell Titer Blue Cell viability assay reagent (Promega, Karlsruhe, Germany), following the manufacturer’s protocol as described previously. Values were measured in triplicates per experiment, and relative light units (RLU) obtained after 60 min were normalized by subtraction of control values obtained after 0 min. The maximum proliferation was set to 100%, and all other values were calculated accordingly.

B1: sIL-6R: recombinant soluble IL-6 receptor expressed in HEK293-EBNA cells (protein, UniProt P08887 20-365, looked up)
extracellular domain: LAPRRCPAQEVARGVLTSLPGDSVTLTCPGVEPEDNATVHWVLRKPAAGSHPSRWAGMGRRLLLRSVQLHDSGNYSCYRAGRPAGTVHLLVDVPPEEPQLSCFRKSPLSNVVCEWGPRSTPSLTTKAVLLVRKFQNSPAEDFQEPCQYSQESQKFSCQLAVPEGDSSFYIVSMCVASSVGSKFSKTQTFQGCGILQPDPPANITVTAVARNPRWLSVTWQDPHSWNSSFYRLRFELRYRAERSKTFTTWMVKDLQHHCVIHDAWSGLRHVVQLRAQEEFGQGEWSEWSPEAMGTPWTESRSPPAENEVSTPMQALTTNKDDDNILFRDSANATSLPVQDSSSVPLP
modifications: extracellular domain recombinant
notes: recombinant soluble IL-6 receptor expressed in HEK293-EBNA cells
  IL-6 trans-signaling activity, in words: biologically active
